Experiment [1] addresses T1, membrane-bound B Lymphocyte Stimulator on U937 plasma membrane preparations (human, UniProt Q9Y275 1-285).
T1 construct: Natural protein in plasma membrane fractions of the human cell line U937 coated on ELISA plates; also called U937 plasma membranes; U937 membranes
The experiment in a line: phage ELISA. Background: In an ELISA, binding on a coated surface is turned into a signal by an enzyme label.

A further experiment addresses T2, TNF-alpha (human, UniProt P01375 77-233).
T2 construct: also called TNFα; TNF-α
The experiment in a line: phage ELISA.

The target in the next experiment is T3, TNF-beta (human, UniProt P01374 35-205).
T3 construct: also called TNFβ; Tumour Necrosis Factor-beta
T3 sequence (looked up): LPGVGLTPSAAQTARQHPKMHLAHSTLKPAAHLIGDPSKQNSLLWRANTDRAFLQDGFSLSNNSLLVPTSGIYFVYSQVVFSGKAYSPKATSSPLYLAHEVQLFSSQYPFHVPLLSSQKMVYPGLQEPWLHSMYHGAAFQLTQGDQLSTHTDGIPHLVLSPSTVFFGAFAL
The experiment in a line: phage ELISA.

The target of another experiment is T4, Fas ligand (human, UniProt P48023 134-281, limits assumed).
T4 sequence (looked up): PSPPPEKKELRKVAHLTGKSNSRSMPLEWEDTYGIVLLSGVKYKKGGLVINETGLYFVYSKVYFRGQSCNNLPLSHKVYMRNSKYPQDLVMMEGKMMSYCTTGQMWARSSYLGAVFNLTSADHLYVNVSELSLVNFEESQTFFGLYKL
Description: phage ELISA.

The target in another experiment is T5, TRAIL (human, UniProt P50591 114-281).
T5 construct: also called TNF-related apoptosis inducing ligand
Description: phage ELISA.

The target of experiment [2] is T6, B Lymphocyte Stimulator, soluble form (human) (human, UniProt Q9Y275 134-285, biotinylated with NHS-biotin where used as biotinylated B Lymphocyte Stimulator).
T6 construct: Coated on plastic, captured on streptavidin plates, amine-coupled to a CM5 chip or free in solution, depending on the assay; also called BLyS; immobilized B Lymphocyte Stimulator
Description: phage competition ELISA.

This is an account of results in patent US20110293610A1 (published 2011).

T5 sequence (P50591 114-281 limits assumed): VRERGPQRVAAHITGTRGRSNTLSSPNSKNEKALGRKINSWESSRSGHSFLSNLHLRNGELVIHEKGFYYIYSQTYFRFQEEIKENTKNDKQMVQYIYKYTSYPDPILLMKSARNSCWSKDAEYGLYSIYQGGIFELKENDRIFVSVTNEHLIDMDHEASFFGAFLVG
T2 sequence (P01375 77-233 limits assumed): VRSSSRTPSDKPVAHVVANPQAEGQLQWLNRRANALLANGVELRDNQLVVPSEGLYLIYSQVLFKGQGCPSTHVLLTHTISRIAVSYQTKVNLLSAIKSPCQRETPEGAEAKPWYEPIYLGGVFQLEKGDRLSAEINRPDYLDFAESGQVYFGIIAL

B1: I012A06 (scFv)
scFv: QVQLQESGPGVVKPSQTLSLTCTVSGVSISSDSYYWSWIRQPAGKGPEWIGRIYPTGSTNYNPSLKSRVTISVDTSKNQFSLQLTSVTAADTAVYYCARGRWDYDLLTGEHLGYYFDYWGRGTLVTVSSGGGGSGGGGSGGGGSALSSELTQDPAVSVALGQTVRITCQGDTLRNYYASWYQQKPGQAPVLVIHSRNNRPSGIPDRFSGSSSGTTASLTITGSQAEDEADYYCNSRDSSGNVIFGGGTKLTVLG
Consider B1, for which the binding result in experiment [1] is listed as “binds”; in the experiment with TNF-alpha, “no binding”; with TNF-beta, “no binding”; with Fas ligand, “no binding”; with TRAIL, “no binding”; in experiment [2] it was “binds”.

B2: I031F02 (scFv)
scFv: QVQLVQSGAEVRKPGSSVKVSCKASGGSFSSHVFSWVRQAPGQGLEWVGGITPKFATPNYAQKFQHRVTITADELTRTVFMDLSGLRSEDTAVYYCARGYDSSAFRAFDIWGQGTMVTVSSGGGGSGGGGSGGGGSAQSVLTQPPSVSGAPGQRVTISCTGSSSNIGAGYDVQWYQQLPGTAPKLLIHGNNNRPSGVPDRFSGSKSGTSASLAITGLQDEDEADYYCQSYDSSLSFSGYVFGTGTKVTVLG
With B2, the binding result in experiment [1] is given as “binds”; with TNF-alpha, “no binding”; with TNF-beta, “no binding”; with Fas ligand it was “no binding”; with TRAIL, “no binding”; in experiment [2], “binds”.

B3: I031G10 (scFv)
scFv: QVQLVQSGAEVKKPGSSVKVSCRVSGGSFTDDSINWLRQAPGQGLEWVGGTIPLANRANYAQKFRDRVTITADELTATVFLELTSLRSDDTALYYCARSSPPKWYDALTGDSSYHSAMDVWGRGTLVTVSSGGGGSGGGGSGGGGSAQSVVTQPPSVSAAPGQKVTISCSGSTSNIGRNYVSWYQQLPGTATKLLIYDNNKRPSGIPDRFSGSKSGTSATLGITGLQTGDEADYYCGTWDSSLRIYVFGTGTKVTVLG
In the case of B3, the binding result in experiment [1] is recorded as “binds”; with TNF-alpha, “no binding”; with TNF-beta it was “no binding”; with Fas ligand, “no binding”; with TRAIL, “no binding”; in experiment [2] it was “binds”.

B4: I031C07 (scFv)
scFv: EVQLVQSGAEVKKPGSSVKVSCRASGGSFIDGSINWLRQAPGQGLEWVGGTIPLANRANYAQKFRDRVTITADELTAIVFLELTSLRSDDTALYYCARSSPPRWYDALTGDSSYHSAMDVWGQGTMVTVSSGGGGSGGGGSGGGGSAQSALTQPPSASGSPGQSVTISCSGTSSDIGDSNSVSWYQQHPGKAPKLLIYEVTKRPSGVPDRFAGSRSDNTASLTVSGLQTEDEADYYCSSSAARNHLVFGGGTKVTVLG
Regarding B4, the binding result in experiment [1] is “binds”; with TNF-alpha it was “no binding”; with TNF-beta, “no binding”; with Fas ligand it was “no binding”; with TRAIL it was “no binding”; in experiment [2], “binds”.

B5: I031G08 (scFv)
scFv: QVQLVQSGAEVKKPGSSVKVSCRASGGSFIDDSINWLRQAPGQGLEWVGGTIPLANRANYAQKFRDRATITADELTATVFLELTSLRSDDTALYYCARSSPPKWYDALTGHSSYHSAMDVWGRGTLVTVSSGGGGSGGGGSGGGGSAQSVLTQPPSASGTPGQRVTISCSGTNSNIGGNTVNWYQQLPGTAPRLLIYSNNQRPSGVPDRFSGSKSGTSASLAISGLQSEDEADYYCAARDDRLNAHVVFGGGTKVTVLG
In the case of B5, the binding result in experiment [1] is given as “binds”; with TNF-alpha, “no binding”; with TNF-beta it was “no binding”; with Fas ligand it was “no binding”; in the experiment with TRAIL, “no binding”; in experiment [2], “binds”.

B6: I028A06 (scFv)
scFv: QVQLVESGGGLIQPGGSLRLSCAASGFSFGSYAMSWIRQAPGKGLEWVSTSTGRGGSTYYADSVKGRFTISRDNAKNSLYLQMNSLRAEDAAVYYCARGGDYDILTGLYYYGMDVWGKGTMVTVSSGGGGSGGGGSGGGGSSYVLTQPPSVSGTPGQRVTISCSGGRSNIGSNTVKWYQQLPGTAPKLLIYGNDQRPSGVPDRFSGSKSGTSASLAITGVQAEDEADYYCQSYDSSLRGSRVFGTGTKVTVLG
As for B6, the binding result in experiment [1] is “binds”; with TNF-alpha, “no binding”; in the experiment with TNF-beta it was “no binding”; with Fas ligand, “no binding”; with TRAIL, “no binding”; in experiment [2], “binds”.

B7: I031F09 (scFv)
scFv: QVQLVQSGAEVKKPGASVKVSCTVSGDSFSRHGISWVRQAPGQGLEWMGWISVYNGDTKYAQKVQGRVTMTTDTSTNTVYMELRRLRSDDTAVYYCARDEGRDLLTGYYWPNFFDSWGRGTLVTVSSGGGGSGGGGSGGGGSALSYVLTQPPSASGTPGQRVTISCSGSRPNIGGNTVNWYQQLPGAAPKLLIYSNSQRPSGVPDRFSGSKYGTSASLAISGLQSDDEADYYCAAWDDSLTGPVFGGGTKLTVLG
With B7, the binding result was “binds” in experiment [1]; “no binding” with TNF-alpha; “no binding” with TNF-beta; “no binding” with Fas ligand; “no binding” with TRAIL; “binds” in experiment [2].

B8: I031G11 (scFv)
scFv: QVQLVQSGAEVKKPGASVKVSCTVSGDSFSRHGISWVRQAPGQGLEWMGWISVYNGDTKYAQKVQGRVTMTTDTSTNTVYMELRRLRSDDTAVYYCARDEGRDLLTGYYWPNFFDSWGRGTLVTVSSGGGGSGGGGSGGGGSALSYVLTQPPSVSGTPGQKVTISCSGSRPNIGGNTVNWYQQLPGAAPKLLIYSNSQRPSGVPDRFSGSKYGTSASLAISGLQSDDEADYYCAAWDDSLTGPVFGGGTKLTVLG
With B8, the binding result in experiment [1] is “binds”; with TNF-alpha, “no binding”; in the experiment with TNF-beta, “no binding”; in the experiment with Fas ligand it was “no binding”; with TRAIL, “no binding”; in experiment [2], “binds”.

B9: I031C03 (scFv)
scFv: QMQLVQSGAEVRKPGSSVKVSCKASGGSFSSHVFSWVRQAPGQGLEWVGGITPKFATPNYAQKFQHRVTITADELTRTVFMDLSGLRSEDTAVYYCARGYDSSAFRAFDIWGQGTLVTVSSGGGGSGGGGSGGGGSAQSVLTQPPSVSAAPGQKVTISCSGSSSNIGNNYVSWYQQFPGTAPKLLIYDNNNRPSGVPDRFSGSKSGTSATLGITGLQTGDEADYYCGTWDRSLSVVVFGGGTKVTVLG
On to B9, for which the binding result in experiment [1] is on record as “binds”; with TNF-alpha it was “no binding”; in the experiment with TNF-beta, “no binding”; with Fas ligand, “no binding”; in the experiment with TRAIL, “no binding”; in experiment [2], “binds”.

B10: I021B05 (scFv)
scFv: QVQQSGADVKKPGGSLRLSCAASGFTFSSYSMNWVRQAPGKGLEWVSSISSSSSYIYYADSVKGRFTISRDNAKNSLYLQMNSLRAEDTAVYYCAREGGNYDILTGYYIGNGAFDIWGRGTMVTVSSGGGGSGGGGSGGGGSQSVLTQPASVSGSPGQSITISCTGTSSDVGGYNYVSWYQQHPGKAPKLMIYEGSKRPSGVSNRFSGSKSGNTASLTISGLQAEDEADYYCSSYTTRSTRVFGGGTKLTVLG
As for B10, the binding result in experiment [1] is recorded as “binds”; with TNF-alpha, “no binding”; in the experiment with TNF-beta, “no binding”; in the experiment with Fas ligand it was “no binding”; with TRAIL, “no binding”; in experiment [2], “binds”.

B11: I050A12 (scFv)
scFv: EVQLVQSGAEVKKPGSSVKVSCKASGDTFSHYAINWVRQAPGQGLEWMGGIIPTFNAVKYAQKFQGRATITADGSTSTAYMELNSLRSEDTAVYYCATAPYDLLTHYFHYFDYWGQGTMVTVSSGGGGSGGGGSGGGGSALSSELTQDPAVSVTLGQTVRITCQGDSLRSYYPSWYQQKPGQAPVLVIYPKNIRPSGIPDRFSGSSSGNTASLTITGAQAEDEADYYCNSRASSGNHYVFATGTKLTVLG
Take B11: the binding result is recorded as “binds” in experiment [1]; “no binding” with TNF-alpha; “no binding” in the experiment with TNF-beta; “no binding” with Fas ligand; “no binding” with TRAIL; “binds” in experiment [2].
